Columns and labels:
Test in all cases: cell-based or functional assay
hGLP-1R = hGLP-1R (Homo sapiens, UniProt P43220)
[1] = molecular target: T1, human GIP receptor (human) (UniProt P48546)
T1 sequence (looked up): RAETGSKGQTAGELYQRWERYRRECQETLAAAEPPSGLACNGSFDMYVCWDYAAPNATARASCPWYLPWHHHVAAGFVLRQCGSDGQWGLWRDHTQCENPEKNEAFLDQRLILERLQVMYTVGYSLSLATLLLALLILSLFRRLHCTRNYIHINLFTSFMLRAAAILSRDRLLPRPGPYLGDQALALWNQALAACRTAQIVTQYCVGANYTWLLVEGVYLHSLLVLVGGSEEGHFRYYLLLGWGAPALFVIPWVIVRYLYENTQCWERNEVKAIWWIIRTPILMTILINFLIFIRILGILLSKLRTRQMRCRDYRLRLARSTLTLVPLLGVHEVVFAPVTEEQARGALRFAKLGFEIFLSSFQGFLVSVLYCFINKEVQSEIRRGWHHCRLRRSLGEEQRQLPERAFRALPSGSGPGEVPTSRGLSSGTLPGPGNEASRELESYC

[2] = molecular target: human GLP-1R (SNAP-GLP-1R expressed in HEK293 cells) (human) (UniProt P43220)
human GLP-1R (SNAP-GLP-1R expressed in HEK293 cells) (human), sequence (P43220 24-463): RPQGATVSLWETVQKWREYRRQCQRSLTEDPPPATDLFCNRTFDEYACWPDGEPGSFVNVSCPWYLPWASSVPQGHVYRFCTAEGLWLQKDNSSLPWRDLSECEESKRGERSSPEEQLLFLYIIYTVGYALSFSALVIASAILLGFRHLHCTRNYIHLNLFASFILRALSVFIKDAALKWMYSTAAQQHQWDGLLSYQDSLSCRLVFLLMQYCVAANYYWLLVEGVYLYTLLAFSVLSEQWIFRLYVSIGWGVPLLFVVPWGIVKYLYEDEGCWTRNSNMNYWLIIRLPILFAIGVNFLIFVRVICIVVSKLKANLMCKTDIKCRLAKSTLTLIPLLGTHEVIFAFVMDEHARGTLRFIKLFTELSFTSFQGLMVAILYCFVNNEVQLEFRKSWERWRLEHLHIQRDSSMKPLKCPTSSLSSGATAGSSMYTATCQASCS

[3] = molecular target: human glucagon receptor (human) (UniProt P47871)
human glucagon receptor (human), sequence (P47871 26-477): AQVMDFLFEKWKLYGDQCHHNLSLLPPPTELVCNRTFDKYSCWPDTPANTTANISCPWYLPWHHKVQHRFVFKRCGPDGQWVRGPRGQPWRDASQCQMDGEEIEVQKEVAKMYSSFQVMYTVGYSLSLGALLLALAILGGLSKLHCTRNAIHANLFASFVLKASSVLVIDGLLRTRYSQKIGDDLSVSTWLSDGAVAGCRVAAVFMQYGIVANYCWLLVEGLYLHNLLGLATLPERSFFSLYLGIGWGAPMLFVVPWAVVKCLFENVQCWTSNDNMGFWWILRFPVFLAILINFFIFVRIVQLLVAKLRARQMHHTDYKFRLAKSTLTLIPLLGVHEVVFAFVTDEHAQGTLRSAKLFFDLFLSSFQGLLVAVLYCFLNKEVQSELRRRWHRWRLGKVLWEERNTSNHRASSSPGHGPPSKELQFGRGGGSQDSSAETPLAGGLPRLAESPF

hGLP-1R, sequence (P43220 24-463): as the sequence (P43220 24-463) above

B1: Example 214 (peptide)
chain: YXQGTFTSDFSXXLDKKAQXAFIEYLLEAGPSSXAPPPSGT
modifications: Lys acylated with AEEA-γGlu-C18 diacid; non-natural residues; C-amide; synthetic construct; SITE 2: note = 2-Aminoisobutyric Acid; SITE 12: note = L-ornithine; SITE 13: note = alpha-methyl-leucine; SITE 17: note = Lysine is chemically modified through conjugation of the epsilon-amino group of the Lysine side chain with (2-[2-(2-Amino-ethoxy)-ethoxy]-acetyl)-(gamma-Glu)
hGLP-1R
  Relative cAMP EC50: 1.22 nM
  cAMP Rel EC50, nM (1% HSA): 186 nM
[1]
  Relative cAMP EC50: 0.103 nM
  cAMP Rel EC50, nM (1% HSA): 15.1 nM
[2]
  GLP1R Internalization EC50: 50.1 nM
  Internalization % TOP: 41.7%
[3]
  Relative cAMP EC50: 2.49 nM
  cAMP Rel EC50, nM (1% HSA): 302 nM

B2: Example 217 (peptide)
chain: YXQGTFTSDFSKXLDKKAQXAFIEYLIEXGESSGAPPPSGE
modifications: Aib, αMeL, acylated Lys (AEEA-γGlu-C18 diacid), C-terminal amide; synthetic construct; SITE 2: note = 2-Aminoisobutyric Acid; SITE 13: note = alpha-methyl-leucine; SITE 17: note = Lysine is chemically modified through conjugation of the epsilon-amino group of the Lysine side chain with (2-[2-(2-Amino-ethoxy)-ethoxy]-acetyl)-(gamma-Glu)-CO-(CH2) 16-CO2H; SITE 20: n
hGLP-1R
  Relative cAMP EC50: 0.667 nM
  cAMP Rel EC50, nM (1% HSA): 130 nM
[1]
  Relative cAMP EC50: 0.0897 nM
  cAMP Rel EC50, nM (1% HSA): 15 nM
[2]
  GLP1R Internalization EC50: 27.6 nM
  Internalization % TOP: 58.2%
[3]
  Relative cAMP EC50: 5.11 nM
  cAMP Rel EC50, nM (1% HSA): 1570 nM

B3: Example 222 (peptide)
chain: YXQGTFTSDXSXXLDKKAQXAFIEYLIEXGESSGAPPPSGE
modifications: non-natural residues; Lys acylated C18 diacid; C-terminal amide; synthetic construct; SITE 2: note = 2-Aminoisobutyric Acid; SITE 10: note = 3-(4-Pyridyl)-L-alanine; SITE 12: note = L-ornithine; SITE 13: note = alpha-methyl-leucine; SITE 17: note = Lysine is chemically modified through conjugation of the epsilon-amino group of the Lysine side chain with (2-[2-(2-
hGLP-1R
  Relative cAMP EC50: 3.64 nM
  cAMP Rel EC50, nM (1% HSA): 753 nM
[1]
  Relative cAMP EC50: 0.228 nM
  cAMP Rel EC50, nM (1% HSA): 52.5 nM
[2]
  GLP1R Internalization EC50: 34.6 nM
  Internalization % TOP: 52.4%
[3]
  Relative cAMP EC50: 2.33 nM
  cAMP Rel EC50, nM (1% HSA): 440 nM

B4: Example 223 (peptide)
chain: YXQGTFTSDXSXXLDKKAQXAFIEYLIEXGESSGAPPPSGS
modifications: Aib, 4Pal, Orn, αMeL, αMe4Pal, acylated Lys, amide; synthetic construct; SITE 2: note = 2-Aminoisobutyric Acid; SITE 10: note = 3-(4-Pyridyl)-L-alanine; SITE 12: note = L-ornithine; SITE 13: note = alpha-methyl-leucine; SITE 17: note = Lysine is chemically modified through conjugation of the epsilon-amino group of the Lysine side chain with (2-[2-(2-
hGLP-1R
  Relative cAMP EC50: 2.83 nM
  cAMP Rel EC50, nM (1% HSA): 627 nM
[1]
  Relative cAMP EC50: 0.215 nM
  cAMP Rel EC50, nM (1% HSA): 37.2 nM
[2]
  GLP1R Internalization EC50: 45.8 nM
  Internalization % TOP: 59.3%
[3]
  Relative cAMP EC50: 1.57 nM
  cAMP Rel EC50, nM (1% HSA): 373 nM

B5: Example 224 (peptide)
chain: YXQGTFTSDXSRXLDKKAQXAFIEYLIEXGESSGAPPPSGS
modifications: non-natural residues, C-terminal amide, acylated Lys with fatty diacid; synthetic construct; SITE 2: note = 2-Aminoisobutyric Acid; SITE 10: note = 3-(4-Pyridyl)-L-alanine; SITE 13: note = alpha-methyl-leucine; SITE 17: note = Lysine is chemically modified through conjugation of the epsilon-amino group of the Lysine side chain with (2-[2-(2-Amino-ethoxy)-ethoxy]-acetyl)
hGLP-1R
  Relative cAMP EC50: 1.89 nM
  cAMP Rel EC50, nM (1% HSA): 333 nM
[1]
  Relative cAMP EC50: 0.114 nM
  cAMP Rel EC50, nM (1% HSA): 21.5 nM
[2]
  GLP1R Internalization EC50: 32.2 nM
  Internalization % TOP: 61.9%
[3]
  Relative cAMP EC50: 1.91 nM
  cAMP Rel EC50, nM (1% HSA): 452 nM

B6: Example 225 (peptide)
chain: YXQGTFTSDXSRXLDKKAQXAFIEYLIEXGESSGAPPPSGE
modifications: non-natural residues, AEEA-γGlu-C18 diacid acyl on K, C-terminal amide; synthetic construct; SITE 2: note = 2-Aminoisobutyric Acid; SITE 10: note = 3-(4-Pyridyl)-L-alanine; SITE 13: note = alpha-methyl-leucine; SITE 17: note = Lysine is chemically modified through conjugation of the epsilon-amino group of the Lysine side chain with (2-[2-(2-Amino-ethoxy)-ethoxy]-acetyl)
hGLP-1R
  Relative cAMP EC50: 2.44 nM
  cAMP Rel EC50, nM (1% HSA): 438 nM
[1]
  Relative cAMP EC50: 0.213 nM
  cAMP Rel EC50, nM (1% HSA): 40.2 nM
[2]
  GLP1R Internalization EC50: 26 nM
  Internalization % TOP: 56.7%
[3]
  Relative cAMP EC50: 2.36 nM
  cAMP Rel EC50, nM (1% HSA): 561 nM

B7: Example 226 (peptide)
chain: YXQGTFTSDXSQXLDKKAQXAFIEYLIEXGESSGAPPPSGS
modifications: non-natural residues, lipidated Lys, C-terminal amide; synthetic construct; SITE 2: note = 2-Aminoisobutyric Acid; SITE 10: note = 3-(4-Pyridyl)-L-alanine; SITE 13: note = alpha-methyl-leucine; SITE 17: note = Lysine is chemically modified through conjugation of the epsilon-amino group of the Lysine side chain with (2-[2-(2-Amino-ethoxy)-ethoxy]-acetyl)
hGLP-1R
  Relative cAMP EC50: 1.97 nM
  cAMP Rel EC50, nM (1% HSA): 354 nM
[1]
  Relative cAMP EC50: 0.127 nM
  cAMP Rel EC50, nM (1% HSA): 32.2 nM
[2]
  GLP1R Internalization EC50: 29.1 nM
  Internalization % TOP: 59.3%
[3]
  Relative cAMP EC50: 3.08 nM
  cAMP Rel EC50, nM (1% HSA): 763 nM

B8: Example 227 (peptide)
chain: YXQGTFTSDXSQXLDKKAQXAFIEYLIEXGESSGAPPPSGE
modifications: Aib, 4Pal, αMeL, αMe4Pal; K acylated AEEA-γGlu-C18 diacid; amide; synthetic construct; SITE 2: note = 2-Aminoisobutyric Acid; SITE 10: note = 3-(4-Pyridyl)-L-alanine; SITE 13: note = alpha-methyl-leucine; SITE 17: note = Lysine is chemically modified through conjugation of the epsilon-amino group of the Lysine side chain with (2-[2-(2-Amino-ethoxy)-ethoxy]-acetyl)
hGLP-1R
  Relative cAMP EC50: 2.34 nM
  cAMP Rel EC50, nM (1% HSA): 418 nM
[1]
  Relative cAMP EC50: 0.17 nM
  cAMP Rel EC50, nM (1% HSA): 39.7 nM
[2]
  GLP1R Internalization EC50: 114 nM
  Internalization % TOP: 59.4%
[3]
  Relative cAMP EC50: 4.22 nM
  cAMP Rel EC50, nM (1% HSA): 937 nM

B9: Example 230 (peptide)
chain: YXQGTFTSDFSRXLDKKAQXAFIEYLIEXGESSGAPPPSGS
modifications: non-natural residues, AEEA-γGlu-C18 diacid acyl on K, C-terminal amide; synthetic construct; SITE 2: note = 2-Aminoisobutyric Acid; SITE 13: note = alpha-methyl-leucine; SITE 17: note = Lysine is chemically modified through conjugation of the epsilon-amino group of the Lysine side chain with (2-[2-(2-Amino-ethoxy)-ethoxy]-acetyl)-(gamma-Glu)-CO-(CH2) 16-CO2H; SITE 20: n
hGLP-1R
  Relative cAMP EC50: 0.937 nM
[1]
  Relative cAMP EC50: 0.0909 nM
[2]
  GLP1R Internalization EC50: 34.4 nM
  Internalization % TOP: 31.2%
[3]
  Relative cAMP EC50: 1.61 nM

B10: Example 231 (peptide)
chain: YXQGTFTSDFSRXLDKKAQXAFIEYLIEXGESSGAPPPSGE
modifications: non-natural residues; lipidated Lys; C-terminal amide; synthetic construct; SITE 2: note = 2-Aminoisobutyric Acid; SITE 13: note = alpha-methyl-leucine; SITE 17: note = Lysine is chemically modified through conjugation of the epsilon-amino group of the Lysine side chain with (2-[2-(2-Amino-ethoxy)-ethoxy]-acetyl)-(gamma-Glu)-CO-(CH2) 16-CO2H; SITE 20: n
hGLP-1R
  Relative cAMP EC50: 1.3 nM
  cAMP Rel EC50, nM (1% HSA): 223 nM
[1]
  Relative cAMP EC50: 0.119 nM
  cAMP Rel EC50, nM (1% HSA): 27.4 nM
[2]
  GLP1R Internalization EC50: 36.1 nM
  Internalization % TOP: 27.7%
[3]
  Relative cAMP EC50: 2.12 nM
  cAMP Rel EC50, nM (1% HSA): 443 nM

B11: Example 232 (peptide)
chain: YXQGTFTSDFSQXLDKKAQXAFIEYLIEXGESSGAPPPSGS
modifications: non-natural residues (Aib, αMeL, αMe4Pal); lipidated K; C-terminal amide; synthetic construct; SITE 2: note = 2-Aminoisobutyric Acid; SITE 13: note = alpha-methyl-leucine; SITE 17: note = Lysine is chemically modified through conjugation of the epsilon-amino group of the Lysine side chain with (2-[2-(2-Amino-ethoxy)-ethoxy]-acetyl)-(gamma-Glu)-CO-(CH2) 16-CO2H; SITE 20: n
hGLP-1R
  Relative cAMP EC50: 0.819 nM
  cAMP Rel EC50, nM (1% HSA): 226 nM
[1]
  Relative cAMP EC50: 0.102 nM
  cAMP Rel EC50, nM (1% HSA): 24.6 nM
[2]
  GLP1R Internalization EC50: 44.7 nM
  Internalization % TOP: 45.5%
[3]
  Relative cAMP EC50: 2.42 nM
  cAMP Rel EC50, nM (1% HSA): 482 nM

— patent US20240270821A1, “GIP/GLP1/GCG TRI-RECEPTOR AGONISTS AND USES THEREOF” (priority 2023, published 2024)
